Data from PMC6525113.

Biological target: Human methylmalonyl-CoA epimerase, wild-type (human) (UniProt Q96PE7)
Assay: not stated; solution data (Supplemental Fig. S2)

For “Human methylmalonyl-CoA epimerase, wild-type (from UniProt Q96PE7 45-176) (enzyme)”, which stoichiometry N is on record?
The stoichiometry N was 2.
